Results from IntAct's records for PubMed 22904686.

B1: Latent membrane protein 1 (Epstein-Barr virus (strain B95-8) (HHV-4)), P03230 (parent)
chain: MEHDLERGPPGPRRPPRGPPLSSSLGLALLLLLLALLFWLYIVMSDWTGGALLVLYSFALMLIIIILIIFIFRRDLLCPLGALCILLLMITLLLIALWNLHGQALFLGIVLFIFGCLLVLGIWIYLLEMLWRLGATIWQLLAFFLAFFLDLILLIIALYLQQNWWTLLVDLLWLLLFLAILIWMYYHGQRHSDEHHHDDSLPHPQQATDDSGHESDSNSNEGRHHLLVSGAGDGPPLCSQNLGAPGGGPDNGPQDPDNTDDNGPQDPDNTDDNGPHDPLPQDPDNTDDNGPQDPDNTDDNGPHDPLPHSPSDSAGNDGGPPQLTEEVENKGGDQGPPLMTDGGGGHSHDSGHGGGDPHLPTLLLGSSGSGGDDDDPHGPVQLSYYD

Variants of: B1
Settings: with tnik_human TNIK

| Variant | effect of a mutation on the interaction |
| --- | --- |
| Y384G | disrupting interaction strength |
